Experimental findings from PMC5681996 are described below.

In series [1] the target is T1, TDP-43 WT (UniProt Q13148 1-414). The series can be described thus: CD.
Series [2] has as its target T1, TDP-43 WT. The experiment in a line: CD. This is another data set of the same source.
The target in series [3] is T1, TDP-43 WT. The experiment in a line: EMSA. (Mobility shift assays separate free from complexed probe on a gel.)

T1 sequence (Q13148 whole entry): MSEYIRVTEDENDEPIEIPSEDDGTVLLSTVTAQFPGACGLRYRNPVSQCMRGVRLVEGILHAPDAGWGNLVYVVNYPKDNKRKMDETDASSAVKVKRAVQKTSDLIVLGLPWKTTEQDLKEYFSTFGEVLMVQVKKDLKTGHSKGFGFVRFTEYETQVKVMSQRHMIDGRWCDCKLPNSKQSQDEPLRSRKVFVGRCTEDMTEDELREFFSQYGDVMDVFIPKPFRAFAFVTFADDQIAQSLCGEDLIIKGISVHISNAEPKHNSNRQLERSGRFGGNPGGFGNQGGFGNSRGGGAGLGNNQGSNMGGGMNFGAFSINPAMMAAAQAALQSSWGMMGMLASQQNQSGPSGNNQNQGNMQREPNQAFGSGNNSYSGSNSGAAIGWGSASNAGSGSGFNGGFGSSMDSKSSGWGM

As for UGUGUGUG (ssRNA) [(UG)4], the binding result in the series with TDP-43 WT [1] is reported as “binds”.

As for UGGAAUGGAAUGGAAUGGAA (ssRNA) [(UGGAA)4], in the series with TDP-43 WT [2], the binding result was “binds”.

With UGGAAUGGAAUGGAAUGGAAUGGAAUGGAAUGGAAUGGAA (ssRNA) [(UGGAA)8], the binding result with TDP-43 WT [3] is reported as “binds”.

Consider UGUGUGUGUGUGUGUG (ssRNA) [(UG)8], for which the binding result with TDP-43 WT [3] is on record as “binds”.
